Assay results published in the supplement of paper PMC11780869.

Tested on: Bacillus subtilis
Test: cleaved RNA product abundance (RNA/gDNA barcode ratio) relative to median wild-type variant (ratio to wild type); higher = more accumulation of the downstream cleavage product
Conditions: cleavage site: cggR-gapA (positions -7 to +36 mutated)
Protocol: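 MPRA in B. subtilis. Mutagenized RNase Y cleavage-site regions (9% mutation rate) were inserted into a barcoded reporter mRNA (truncated aprE or tetM). Cells were grown in LB at 37°C to OD600 0.3. The cleaved RNA isoform was gel-purified and its barcodes counted; the RNA:gDNA barcode ratio was normalised to the median wild-type variant, and the median over barcodes is reported per variant. The printed sequence is the variable window only; the reporter flanks are not printed.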

[1] = experiment (reporter, strain, medium): exp 4a: truncated aprE reporter, strain BJT201 with 2% xylose (RNase J1 expressed)
[2] = experiment (reporter, strain, medium): exp 2b: truncated aprE reporter, strain BJT200
[3] = experiment (reporter, strain, medium): exp 6: tetM reporter, strain 168

Sequence	cleaved RNA product abundance [1]	cleaved RNA product abundance [2]	cleaved RNA product abundance [3]
ACAGACGAAGGAGCCGCAAACAAGTTAATAAGGGATGAATAATCCCTCAATATAAATATCTCTCACTTATTTAAA	0.274		
ACAGACGAAGGAGCCGCAAACAAGTTACTAAGGGATGAATAATCCCTCAATATAAATATCTCTCACTTATTTAAA		0.169	
ACAGACGAAGGAGCCGCAAACAAGTTATAAAAGGATGAATAATCCCTCAATATAAATATCTCTCACTTATTTAAA		0.139	
ACAGACGAAGGAGCCGCAAACAAGTTATAAAGGGATGAATAATCCCTCAATATAAATATCTCTCACTTATTTAAA	0.408		
ACAGACGAAGGAGCCGCAAACAAGTTATGAAGGGATGAATAATCCCTCAATATAAATATCTCTCACTTATTTAAA	0.239		
ACAGACGAAGGAGCCGCAAACAAGTTATTAAAGGATGAATAATCCCTCAATATAAATATCTCTCACTTATTTAAA	0.116	0.121	
ACAGACGAAGGAGCCGCAAACAAGTTATTAAAGGATGAATAATCCCTCATTATAAATATCTCTCACTTATTTAAA	0.115		
ACAGACGAAGGAGCCGCAAACAAGTTATTAAATGATGAATAATCCCTCAATATAAATATCTCTCACTTATTTAAA	0.101		
ACAGACGAAGGAGCCGCAAACAAGTTATTAACGGATGAATAATCCCTCAATATAAATATCTCTCACTTATTTAAA	0.0915	0.111	
ACAGACGAAGGAGCCGCAAACAAGTTATTAAGAGATGAATAATCACTCAATATAAATATCTCTCACTTATTTAAA	0.126	0.106	
ACAGACGAAGGAGCCGCAAACAAGTTATTAAGAGATGAATAATCCCTCAATATAAATATCTCTCACTTATTTAAA	0.118	0.0959	
ACAGACGAAGGAGCCGCAAACAAGTTATTAAGCGATGAATAATCCCTCAATATAAATATCTCTCACTTATTTAAA	0.0647	0.0729	
ACAGACGAAGGAGCCGCAAACAAGTTATTAAGGAATGAATAATCCCTCAATATAAATATCTCTCACTTATTTAAA	0.123	0.115	0.139
ACAGACGAAGGAGCCGCAAACAAGTTATTAAGGGAAGAATAATCCCTCAATATAAATATCTCTCACTTATTTAAA	0.558		
ACAGACGAAGGAGCCGCAAACAAGTTATTAAGGGACGAATAATCCCTCAATATAAATATCTCTCACTTATTTAAA	0.279		
ACAGACGAAGGAGCCGCAAACAAGTTATTAAGGGATAAATAATCCCTCAATATAAATATCTCTCACTTATTTAAA	0.649		
ACAGACGAAGGAGCCGCAAACAAGTTATTAAGGGATCAATAATCCCTCAATATAAATATCTCTCACTTATTTAAA	0.443		
ACAGACGAAGGAGCCGCAAACAAGTTATTAAGGGATGAAAAATCCCTCAATATAAATATCTCTCACTTATTTAAA	0.359		
ACAGACGAAGGAGCCGCAAACAAGTTATTAAGGGATGAACAATCCCTCAATATAAATATCTCTCACTTATTTAAA	0.451		
ACAGACGAAGGAGCCGCAAACAAGTTATTAAGGGATGAATAAACCCTCAATATAAATATCTCTCACTTATTTAAA	0.38	0.29	
ACAGACGAAGGAGCCGCAAACAAGTTATTAAGGGATGAATAATACCTCAATATAAATATCTCTCACTTATTTAAA	0.12	0.107	
ACAGACGAAGGAGCCGCAAACAAGTTATTAAGGGATGAATAATCACTCAATATAAATATCTCTCACTTATTTAAA	0.127		
ACAGACGAAGGAGCCGCAAACAAGTTATTAAGGGATGAATAATCCATCAATATAAATATCTCTCACTTATTTAAA	0.192	0.182	
ACAGACGAAGGAGCCGCAAACAAGTTATTAAGGGATGAATAATCCCACAATATAAATATCTCTCACTTATTTAAA	0.255	0.109	
ACAGACGAAGGAGCCGCAAACAAGTTATTAAGGGATGAATAATCCCCCAATATAAATATCTCTCACTTATTTAAA	0.137		
ACAGACGAAGGAGCCGCAAACAAGTTATTAAGGGATGAATAATCCCTAAATATAAATATCTCTCACTTATTTAAA	0.47		

Sequence	cleaved RNA product abundance [1]	cleaved RNA product abundance [2]	cleaved RNA product abundance [3]
ACAGACGAAGGAGCCGCAAACAAGTTATTAAGGGATGAATAATCCCTCAAAATAAATATCTCTCACTTATTTAAA	0.257	0.194	
ACAGACGAAGGAGCCGCAAACAAGTTATTAAGGGATGAATAATCCCTCAACATAAATATCTCTCACTTATTTAAA	0.25		
ACAGACGAAGGAGCCGCAAACAAGTTATTAAGGGATGAATAATCCCTCAAGATAAATATCTCTCACTTATTTAAA		0.17	
ACAGACGAAGGAGCCGCAAACAAGTTATTAAGGGATGAATAATCCCTCAATAAAAATATCTCTCACTTATTTAAA	0.1		
ACAGACGAAGGAGCCGCAAACAAGTTATTAAGGGATGAATAATCCCTCAATATAAATAACTCTCACTTATTTAAA		0.576	
ACAGACGAAGGAGCCGCAAACAAGTTATTAAGGGATGAATAATCCCTCAATATAAATATCTCTCACTTATTTAAA	0.738	0.78	0.707
ACAGACGAAGGAGCCGCAAACAAGTTATTAAGGGATGAATAATCCCTCAATATAAATTTCTCTCACTTATTTAAA	0.298		
ACAGACGAAGGAGCCGCAAACAAGTTATTAAGGGATGAATAATCCCTCAATATAACTATCTCTCACTTATTTAAA	0.0791		
ACAGACGAAGGAGCCGCAAACAAGTTATTAAGGGATGAATAATCCCTCAATATACATATCTCTCACTTATTTAAA	0.536	0.644	
ACAGACGAAGGAGCCGCAAACAAGTTATTAAGGGATGAATAATCCCTCAATATTAATATCTCTCACTTATTTAAA		0.12	
ACAGACGAAGGAGCCGCAAACAAGTTATTAAGGGATGAATAATCCCTCATTATAAATATCTCTCACTTATTTAAA	0.337		
ACAGACGAAGGAGCCGCAAACAAGTTATTAAGGGATGAATAATCCCTCCATATAAATATCTCTCACTTATTTAAA	0.207		
ACAGACGAAGGAGCCGCAAACAAGTTATTAAGGGATGAATAATCCCTCTATATAAATATCTCTCACTTATTTAAA	0.46		
ACAGACGAAGGAGCCGCAAACAAGTTATTAAGGGATGAATAATCCCTGAATATAAATATCTCTCACTTATTTAAA	0.455		
ACAGACGAAGGAGCCGCAAACAAGTTATTAAGGGATGAATAATCCCTTAATATAAATATCTCTCACTTATTTAAA	0.287		
ACAGACGAAGGAGCCGCAAACAAGTTATTAAGGGATGAATAATCCGTCAATATAAATATCTCTCACTTATTTAAA	0.187		
ACAGACGAAGGAGCCGCAAACAAGTTATTAAGGGATGAATAATCTCTCAATATAAATATCTCTCACTTATTTAAA	0.573	0.529	
ACAGACGAAGGAGCCGCAAACAAGTTATTAAGGGATGAATAATGCCTCAATATAAATATCTCTCACTTATTTAAA	0.0993		
ACAGACGAAGGAGCCGCAAACAAGTTATTAAGGGATGAATAATTCCTCAATATAAATATCTCTCACTTATTTAAA	0.422		
ACAGACGAAGGAGCCGCAAACAAGTTATTAAGGGATGAATATTCCCTCAATATAAATATCTCTCACTTATTTAAA	0.608		
ACAGACGAAGGAGCCGCAAACAAGTTATTAAGGGATGAATTATCCCTCAATATAAATATCTCTCACTTATTTAAA		0.669	
ACAGACGAAGGAGCCGCAAACAAGTTATTAAGGGATGACTAATCCCTCAATATAAATATCTCTCACTTATTTAAA	0.522	0.557	
ACAGACGAAGGAGCCGCAAACAAGTTATTAAGGGATGGATAATCCCTCAATATAAATATCTCTCACTTATTTAAA	0.545		
ACAGACGAAGGAGCCGCAAACAAGTTATTAAGGGATGTATAATCCCTCAATATAAATATCTCTCACTTATTTAAA	0.478		
ACAGACGAAGGAGCCGCAAACAAGTTATTAAGGGATTAATAATCCCTCAATATAAATATCTCTCACTTATTTAAA	0.656	1.02	
ACAGACGAAGGAGCCGCAAACAAGTTATTAAGGGCTGAATAATCCCTCAATATAAATATCTCTCACTTATTTAAA	0.471		
